Results taken from patent publication US20250277790A1 (Johns Hopkins, published 2025).

Target: human EGFR tagged with the fluorescent protein mTurquoise at the C-terminus (wild-type), in plasma … (human, UniProt P00533 25-1210)
Assay: cell-based or functional assay

B1: EGF ligand from mouse labeled with rhodamine at its N-terminus (rho-mEGF, Thermofisher, E3481) (ligand, UniProt P01132 977-1029, looked up)
chain: NSYPGCPSSYDGYCLNGGVCMHIESLDSYTCNCVIGYSGDRCQTRDLRWWELR
modifications: not fully specified; rhodamine (tetramethylrhodamine) at the N-terminus
EC50 of Y1068 phosphorylation per EGFR molecule: 5.5 nM
EC50 of Y1173 phosphorylation per EGFR molecule: 6.8 nM
